Measurements from the DeepSol protein solubility set.

Assay: soluble on expression in E. coli; label from the status in PepcDB or PDB records
For “MDAIILQENIEGLLSLVRMLLPDGGSAGCVYLDDLSALQRSIHEKINDLYSQRGETPEQDATLCLAILQGYNVSMYANPEDEERKQAVLTRSLSLLDVLPPSLLKQQLSAVCYGMQELCEIN”, the “soluble on expression in E. coli” value was “not soluble”. For “MININRYTLSNGLRVIHNEDNTTQMVALNLLYDVGARDEDPDHTGFAHLFEHLMFGGSIHVPDYDTPVQNAGGENNAWTNNDITNYYITLPRQNVETGFWLESDRMLSLDFNPRSLEVQRQVVIEEFKQRNLNQPYGDASHLLRALAYKVHPYQWPTIGKEISHIANATLEEVKAFFFKYYAPDNAILAVTGHITFEETVTLAEKWFGPIPRRNVAP”, the “soluble on expression in E. coli” value was “not soluble”. For “MKMNEEKAVVVFSGGQDSTTCLFWAKKQFGEVEAVTFDYGQRHRREIDVAQAIADELGVRHTVLDLSLLGQLAPNALTRRDIAIEQKEGELPTTFVDGRNLLFLSFAAVFAKQRGARHIVTGVCETDFSGYPDCRDVFIKSLNVTLNLAMDYEFVIHTPLMWLTKAETWKLADELGALEFIRTKTLTCYNGIIADGCGECPACVLRKRGLDEYLREKEGVESR”, the “soluble on expression in E. coli” value was “not soluble”. With “MGSDKIHHHHHHMNHTSADTTLRAFAQLIAEGTCLPAEERAPGQLKTGVDLGTANIVLSVVDANNRPVTGAMFPSTVVRDGIVVDYVGAVSVVRRLKAELEDRLGCPLTFAGTAIPPGILAGNVKAIANVVEAAGFEVADVSDEPTAASRVLGLREGAVVDVGGGTTGISILKNGEVVFTDDEATGGTHMTLVLAGAHGVSFEEAEAMKKDTAAARDVFAVVQPVVEKMASIVKRCLKGYDVETVYVVGGACTFDQFEQVFRKEIGLTIVKPAEPLLVTPLGIAMYGATPGEGAL” the “soluble on expression in E. coli” value was “not soluble”. With “MLNTKSPSPANSNYDFALRHERVKLIARALKQFGVYITRTTQAMREVASCLSLVGQSYHEVAQCVNNTNPHSRADQDCYISFNRQLVESYGANLQNAATLFSAEMMNIKNGEQFLSYNKSVHRTVMTRLHDVLKMAQRTRDLGDDVKAELKKATSCRKVVSRKEAKYIRKGRPLTESKLYVRQSERMRKHDQAYEAKLRTFDTEYESLMQRQLYVAGHTMDDFLDMNTVYLSHILKVLGCLAPNGAEAIQKMLDSGEKLSDLLGIAPEDQLGCRLRAQNVDVLNSSNVTPVKRGVGATPGKGTPAKSSCCGSSHNFTSYYQNRRQAALYVEGAPPTARALGEDSRGSSEPCQTLSETPERQLISNQTPLRATFGSAAICRAASHSYSAAEPAAPSPLQPPSFPAAVRRVDAAPVPYVKPLAIGLHASCGSPGTTTDAAKQTCPAGNAAPAAWVVKTGGRRGSVCDTTNSRTRVELSLGHAQFDDDNTAAGAPPAACLAPAPPPAQYSEERPMERPLGRSEVPAAQAAMFGLDVARSAAPFDDQLVADSCRRTSLLSLKPVALFPLDVSESSISRKVAPRTSAATTSVANPSTQQRSRRDRKKHKTTKVVAAARGVPLPGTASAPPDEDTMSRSTSTQSQEALESSIHGYHAAHYHCPPPQQLHNLKQHPQRDSAPVSLAHFQMELTGCSGDAPCQWRNDGLCSEAGGVSGRSQRLSTSYGLDSPTPTPQPFALGTHAWEDSQVRPCSSA” the “soluble on expression in E. coli” value was “not soluble”. With “MKKDAKDHARNRLMDCYIKKAPTYAAIVKIEHFENDDASSKDFEPFVVYSLNKKKRWEINEESLNSSTEGTSTKSVIIDREIPDLQDSWWCLQNDLLNNCIYHSNPVNSAQMATAKKYEKVIGYHIVRIPVNHKKVFDKKCTRDLSYRYRDSIGNVPRDLTVLQYEMKEVEHGKEDFAKENISPEVNNPSKTIGFYNLEEHFVARKQQKSKGWLTVN” the “soluble on expression in E. coli” value was “not soluble”. With “MDDNNSEFKHLFPIAVEVTEGKTYVWCGCGKSKTQPFCDKENCGDKAVSFIAELTEDVYFCNCKQTKNPPFCDGSHAKILLEVVKKKAKQMNRKGSLKLEHHHHHH” the “soluble on expression in E. coli” value was “not soluble”. With “MKIVSKSSPLPLHYQLKMILQEMIENEELLPGDTIPTERELCEIQKISRMTVNKAILSLVSEGILYREQGKGTFVAKKKEKQQLTKLKSFTEEMREKGLNISTKILSFEIKTATKHISTLLELPHKKMKVIEIIRLRLTDNDPSAIETVVLPLYLFSDMTKEVIDGKSLYNTFREKYGYEPTKAKQTIEPIMLTDYEAKFLNQVGNSLALLFRRLTYRKDGVPIEYTKSIYRSEKYKYEVILT” the “soluble on expression in E. coli” value was “not soluble”. In the case of “MAFGVSHPVALDLEATSTDPSEAEVLEVAAVDGEGRVFHRYLATQRPLPPDHEVFQLTGIPYEEYEAKKVAPKEALEELLAFLGGRPLLGHNLLRYDLPLLQRHLEEAGLPRWQGEALDTLRLAHLLFPTPPGGLEGYRLGDLYAFLLGRPLEGAHRALNDAQATLAVFHRLLDRGRRALAQHPGLVRAWRELGLPEGHLFPEDEGLIKDLLAREADVEAFFVEKEGRPFPAPTDLGPDLLPKPRPAQRIKEFVQVAHGVAGQGLVGRERPLHEVLERGLRLAVGEAEEGAVEKEG”, the “soluble on expression in E. coli” value is reported as “soluble”. For “MDSEGASSESSSSGDQLEKWTEEQDELKKKLIAYDDFTWKLSSSTELSQGSEILKYVGGVDMSFCKEDSSVACACLVVLELPSLRVVHHDFSLLRLHVPYVPGFLAFREAPVLLQILQKMRDEKHPFYPQVLMVDGNGILHPRGFGLACHLGVLAHLPTIGVGKNLHHVDGLNQSEVKQSLQLQINEHEQTITLVGNSGITWGVGFRPTLSSLKPIYVSVGHRISLDSAVEVVKITCKYRVPEPIRQADIRSRAYLQKHQTESFKELAVRPPDQTEP”, the “soluble on expression in E. coli” value was “soluble”. With “MGFFDRLKAGLAKTRERLLKAIPWGGNLEEVLEELEMALLAADVGLSATEEILQEVRASGRKDLKEAVKEKLVGMLEPDERRATLRKLGFNPQKPKPVEPKGRVVLVVGVNGVGKTTTIAKLGRYYQNLGKKVMFCAGDTFRAAGGTQLSEWGKRLSIPVIQGPEGTDPAALAYDAVQAMKARGYDLLFVDTAGRLHTKHNLMEELKKVKRAIAKADPEEPKEVWLVLDAVTGQNGLEQAKKFHEAVGLTGVIVTKLDGTAKGGVLIPIVRTLKVPIKFVGVGEGPDDLQPFDPEAFVEALLED” the “soluble on expression in E. coli” value was “soluble”. With “ADEFGNGDALDLPVGKDAVNSLIRENSHIFSDTQCKVCSAVLISESQKLAHYQSRKHANKVRRYMAINQGEDSVPAKKFKAAPAEISDGEDRSKCCPVCNMTFSSPVVAESHYIGKTHIKNLRLREQ” the “soluble on expression in E. coli” value was “soluble”. With “MDVEKIALKHALINAIEHGGKANLKAVIGKVLGENPELRPRAKEIIPIINKVVEEVNSLARDEQLEKLKDIYPEYFEKKEEKKEKKGLPLLPKAEKGKVVTRFAPNPDGAFHLGNARAAILSYEYAKMYGGKFILRFDDTDPKVKRPEPIFYKMIIEDLEWLGIKPDEIVYASDRLEIYYKYAEELIKMGKAYVCTCPPEKFRELRDKGIPCPHRDEPVEVQLERWKKMLNGEYKEGEAVVRIKTDLNHPNPAVRDWPALRIIDNPNHPRTGNKYRVWPLYNFASAIDDHELGVTHIFRGQEHAENETRQRYIYEYFGWEYPVTIHHGRLSIEGVVLSKSKTRKGIEEGKYLGWDDPRLGTIRALRRRGILPEAIKELIIEVGLKKSDATISWENLAAINRKLVDPIANRYFFVADPIPMEVEGAPEFIAEIPLHPDHPERGVRRLKFTPERPVYVSKDDLNLLKPGNFVRLKDLFNVEILEVGDKIRARFYSFEYEIAKKNRWKMVHWVTEGRPCEVIIPEGDELVVRKGLLEKDAKVQVNEIVQFERFGFVRIDRIEGDKVIAIYAHK” the “soluble on expression in E. coli” value was “soluble”. In the case of “MSETKNDIAWERIFKKYRILEKIKKNGAFEITSGQINEFREARLMTKFDHRKNLPKIFEENNFSILPITRGSYLIAQFKAYHRLEEKETEIIKIPFPTYIESIDYENITSEAAALNCAYVSGILADFIEDEEMVPTVTGRMSSDAFCFYINTYSGSKFKVNVTNAQIEIDGGYEGLGTFSLIEAKNSLSDDFIIRQIYYPYRLWHDKINKKVKPIFMTYSNGIFTFYEYEFQDPEDYNSLTLVKQKKYSIEETEIGLDDIIEIYKRTKIINEPEVPFPQADSFERIINLCELLNESELTRDEITTNYDFDSRQTNYYTDAARYLGLVHKRKEGREVIFSLTEEGEKLFKLKYKPRQLKFVELILSHKVFREVFELCLKNGKMPDKHEVVKIMRYSNLYKIESEKTFYRRAQTIMSWIKWILELTRL”, the “soluble on expression in E. coli” value is reported as “not soluble”. In the case of “MGSDKIHHHHHHMVLSKFMPHNPKFAAKFAEAAQNAHATAQALVDLLENYTDVERKVQRVLDFEHEGDRITSEVTNLLAESFIVPFDREDILALNAELDDLVDDMEEAASKLSLYRIERPLPQMAQLARVVEQQCALLAQGMPLIEDGRMVDELRQLSQKIRALEDEGDRISDEVARHLYDGVTEVPQMIVAMRSGEILNLIENASDQAQRIARTVESILLKNA”, the “soluble on expression in E. coli” value is reported as “not soluble”. With “MMYFISDTHFYHENIINLNPEVRFKGFEIVILTNLLKVLKPEDTLYHLGDFTWHFNDKNEYLRIWKALPGRKILVMGNHDKDKESLKEYFDEIYDFYKIIEHKGKRILLSHYPAKDPITERYPDRQEMVREIYFKENCDLLIHGHVHWNREGIKCACKDYRIECINANVEWNDYKPISEREIDKLISYEKAKN” the “soluble on expression in E. coli” value was “soluble”. For “MATQINQKFGSKYKSNRKDETPMFEVRNGKSVIKNSGNHEATVNRTLDFHMTKLFQWEEQSDAIESSYVCALCHENGEKRELFGPYYATHNPIKYWPSFLAKKPTAKKPTKIELWFHGSCVLWAPNVHLHGNQLTNLDNQIDIFWSQTCIVCRKTGAAISVQNKKNTFIHYPCAKNKGYKLDEHALLCNS”, the “soluble on expression in E. coli” value was “soluble”. With “MGSDKIHHHHHHMRYQNTYAQLDTRLYHEQLPNPLDNPRAGHFNNQVADQLGWTKAADLMARWVEILGGQYVPAEFQPLSMAYAGHQFGQWAGQLGDGRGLLMTQVLDKNNQLQDLHLKGAGLTPYSRMGDGRAVLRSTIREYLCGHALTQLGIASSNALGFVVSDTKVRRERLEAGAALMRVADSHIRLGHVEWIASFAPDLLAEFTDYMIDTYYPECRDSEKPVLAFLQAVVERTARMIADWQLIGFAHGVMNTDNLSITGSTLDFGPFGFMERFNPAWINNHSDHSGRYAYQNQPAIGHWNLNVWLPHFMRLTQAGVTRETLADCLAPYEATFMQHYQQGLCRKLGLPHQRESLSLAFEWLTLLEDNLLDYTNSFRALLGLIAPNEHLYEQQLLATMTAELNPEAQQVWQVWSTRYLAQIQQVSITQAIEEMQASNPIYILRNSMAQRVIVAAEQGQFEELNRVFDLLAKPYTLQDSAIELDTLPPAPHAPQMPISCSS” the “soluble on expression in E. coli” value was “not soluble”. For “MAICPELAQTDKSALANLSDETETLKNFTDEVQTSSSFSSSGGRQSSPLTSGSKLEREKQTPSLEQGDTQSELLDYKNYEKKLSKKWINYLKLKDSNFERHQPDTKLPTEITRVSDEELNALQSYCTMKINLIHRRGDSKKKTSSRHKKLHLGLDVEASERDAFSCTVPDELLNRIYFKNMRTTPKQEAAAKQHISYQCPYCNRKRAELALSAFLKQKKTLLESFLLQERIDEHLHTKDFLTRIGEAHQDFPRLSDDPRIIWKRLTEKSHIRYSGFERSETEQKMQRDGNSACHLPFSLPFLKRLTLIKPELVIVNDNV”, the “soluble on expression in E. coli” value was “not soluble”. With “MATVAELKAVLKDTLEKKGVLGHLKARIRAEVFNALDDDREPRPSLSHENLLINELIREYLEFNKYKYTASVLIAESGQPVVPLDRQFLIHELNAFEESKDNTIPLLYGILAHFLRGTKDGIQNAFLKGPSLQPSDPSLGRQPSRRKPMDDHLRKEEQKSTNIEDLHVSQAVNR” the “soluble on expression in E. coli” value was “soluble”. For “MKVEPYRLVVNEHQVNNTNSKENLKIVQLSDLHIKKDFNADRLDKVIQKTNEQNPDFIIFSGDLYDNYSQYNENEAVISKLKSLKAKYGKIAIWGNRDYGGGAVKEYANIMAESDFSLLRNENQVFTLDNGKKILFTGLDDALLGNPQFPSPNQMAETSYDILLTHEPDEVSQYQNKGYELILSGHSHGGQINVPLIPQIQKKATALMSHANNYTGGLYQLGANEKLYVNTGIGTTHLSARFGVAPEIAVLTFLEHHHHHH”, the “soluble on expression in E. coli” value was “not soluble”.
